Residue numbers refer to the chain shown, from its start. One block for each binder: values may come before it. Ends that are not written are not given here. * marks the point of attachment. Biotin = O=C1N[C@H]2[C@H](CS[C@H]2CCCCC(=O)*)N1
Assays:
human β-amyloid 1-40 [1] = target: T1, human β-amyloid 1-40 (human, UniProt P05067 672-711); experiment: ELISA on human Aβ peptide (1-40), in combination with H11
T1 construct: domain: β-amyloid (1-40); Used in solution over captured antibody (Biacore) or coated on ELISA plates; also called human Aβ peptide (1-40); Aβ peptide (1-40)

human β-amyloid 1-40 [2] = target: T1, human β-amyloid 1-40; experiment: SPR Biacore T100; antibody captured on anti-human IgG, Aβ 1-40 at 1-256 nM; 1:1 model
Description: (§1) Anti-human IgG (Biacore BR-1008-39) was coupled to a CM5 biosensor chip by primary amine coupling. The anti-beta amyloid antibodies were captured on this surface. Beta amyloid (1-40) was then passed over at 256, 64, 16, 4 and 1 nM, with a 0 nM (ie buffer alone passed over the captured antibody surface) used for double referencing. […] The data was analysed using the 1:1 model inherent to the T100. The run was carried out at 25° C. and 37° C. using HBS-EP as the running buffer.

human β-amyloid 1-40 [3] = target: T1, human β-amyloid 1-40; experiment: SPR Biacore T100 at 37 C; antibody captured on anti-human IgG, Aβ 1-40 at 1-256 nM
Description: as §1
From this panel some constructs were also assessed for binding kinetics at physiological temperature.

human β-amyloid 1-40 [4] = target: T1, human β-amyloid 1-40; experiment: SPR Biacore 3000; mAb captured on anti-mouse IgG, Aβ 1-40 at 4-500 nM
Description: (§2) Purified mouse antibody preparations were captured on a polyclonal anti-mouse IgG antibody chip surface. Freshly prepared human β-amyloid 1-40 was diluted down in HBS-EP buffer and passed over the captured antibody surface at concentrations ranging from 4-500 nM for 5 minutes. […] Regeneration was achieved via a pulse of 100 mM H₃PO₄. […] All runs were double referenced against a blank surface and blank buffer injections.

[5] = target: T2, N-terminal biotinylated β-amyloid (24-34) peptide; experiment: FMAT bead immunoassay, culture supernatant
T2 peptide: Biotin-VGSNKGAIIGL
Text: (§3) Each of the expressed antibodies contained in culture supernatant was then screened in an FMAT (Fluorescent Microvolume Assay Technology) homogenous immunoassay. 29 positive antibodies were identified from this screening cascade that were negative for ovalbumin protein passively absorbed to polystyrene beads but positive for: [0158] (i) N-terminal coupled […] (22-38) (SEQ ID No:73) ovalbumin conjugate bound to polystyrene beads, [0159] (ii) N-terminal biotinylated β-amyloid(1-40) peptide bound to streptavidin coated polystyrene beads, [0160] (iii) C-terminal biotinylated β-amyloid(1-40) peptide bound to streptavidin coated polystyrene beads and [0161] (iv) N-terminal biotinylated β-amyloid (24-34) peptide, residues 24-34 of β-amyloid being […] (SEQ ID No:8), bound to streptavidin coated polystyrene beads.

ovalbumin protein = target: T3, ovalbumin protein (UniProt P01012 2-386); experiment: FMAT bead immunoassay, culture supernatant
T3 sequence (looked up): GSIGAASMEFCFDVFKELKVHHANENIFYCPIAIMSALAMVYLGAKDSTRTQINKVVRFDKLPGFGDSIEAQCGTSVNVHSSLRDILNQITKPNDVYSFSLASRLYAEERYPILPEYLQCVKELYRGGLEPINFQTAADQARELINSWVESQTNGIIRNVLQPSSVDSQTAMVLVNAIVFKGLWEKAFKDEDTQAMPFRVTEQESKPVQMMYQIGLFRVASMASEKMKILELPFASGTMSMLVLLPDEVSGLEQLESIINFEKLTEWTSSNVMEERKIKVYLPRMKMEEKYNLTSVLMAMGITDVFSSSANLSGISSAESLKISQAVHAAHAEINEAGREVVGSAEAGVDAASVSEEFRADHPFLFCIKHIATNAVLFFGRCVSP
Text: as §3

[6] = target: T4, N-terminal coupled CGGGEDVGSNKGAIIGLMVGG (22-38) ovalbumin conjugate (coupled by the N-terminus to ovalbumin); experiment: FMAT bead immunoassay, culture supernatant
T4 peptide: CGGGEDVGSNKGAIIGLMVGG
Text: as §3

human β-amyloid 1-40 [7] = target: T1, human β-amyloid 1-40; experiment: SPR Biacore 3000; mAb captured on anti-mouse IgG; triplicate run
Description: as §2

T1 sequence (P05067 672-711 limits assumed): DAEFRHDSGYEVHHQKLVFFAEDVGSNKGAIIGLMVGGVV

Kd (human β-amyloid 1-40 [2]): 2.02 nM
Kd (human β-amyloid 1-40 [3]): 3.54 nM
B3: humanised de-immunised construct H48L20 (antibody, human IgG1, V domains shown)
VH: QVQLVQSGAEVKEPGASVKVSCKGSGFNIHVYYVHWLRQLPEKGLEWIGRIDPENGETIYTPKFQDKATLTVDTSTDTAYMELSSLRSEDTAVYYCVSSGYWGQGTLVTVSS
VL: DIVMTQSPLSNPVTPGEPASISCRSSKSLLHRNGITYLYWYLQKPGQSPQLLIYQMDHLASGVPDRFSSSGSGTDFTLKISRVEAEDVGVYYCAQNLELWTFGQGTKVEIK

Kd (human β-amyloid 1-40 [2]): 2.01 nM
Kd (human β-amyloid 1-40 [3]): 2.69 nM
B5: humanised de-immunised construct H48L21 (antibody, human IgG1, V domains shown)
VH: B3 VH
VL: B3 VL with I35K, H58N

Kd (human β-amyloid 1-40 [2]): 2.17 nM
Kd (human β-amyloid 1-40 [3]): 2.7 nM
B6: humanised de-immunised construct H50L21 (antibody, human IgG1, V domains shown)
VH: B3 VH with K23T
VL: B3 VL with I35K, H58N

Kd (human β-amyloid 1-40 [2]): 2.23 nM
B10: humanised de-immunised construct H49L20 (antibody, human IgG1, V domains shown)
VH: B3 VH with H30K, V31T
VL: B3 VL

Kd (human β-amyloid 1-40 [2]): 2.05 nM
Kd (human β-amyloid 1-40 [3]): 2.9 nM
B13: humanised de-immunised construct H51L21 (antibody, human IgG1, V domains shown)
VH: B3 VH with V31T
VL: B3 VL with I35K, H58N

Kd (human β-amyloid 1-40 [4]): 2.01 nM
koff (human β-amyloid 1-40 [4]): 0.00017 s⁻¹
kon (human β-amyloid 1-40 [4]): 84500 M⁻¹ s⁻¹
binding result [5]: binds
binding result (ovalbumin protein): no binding
binding result [6]: binds
B16: 2E11 mouse monoclonal antibody (antibody, V domains shown)
VH: EVQLQQSGAEVVKPGASVKLSCTASGFNIKVYYIHWLKQLTEQGLEWIGRIDPENGETKYVPKFQGKATLTVDTSSNTAYLHLSSLTSEDTGVYYCVTSGYWGQGTTLTVSS
VL: DIVMTQAAFSNPVALGTSASISCRSSKSLLHSNGITYLYWYLQKPGQSPQLLIYQMSNLASGVPDRFSSSGSGTDFTLRISRVEAEDVGVYYCAQNLELWTFGGGTKLEIK
notes: Mouse hybridoma antibody

Kd (human β-amyloid 1-40 [4]): 2.69 nM
koff (human β-amyloid 1-40 [4]): 0.000164 s⁻¹
kon (human β-amyloid 1-40 [4]): 61100 M⁻¹ s⁻¹
binding result [5]: binds
binding result (ovalbumin protein): no binding
binding result [6]: binds
B17: 5C9 mouse monoclonal antibody (antibody, V domains shown)
VH: EVQLQQSGAEFVRPGASVKLSCTASGFNIKTYYIHWLKQRTDQGLEWIGRIDPEDGETKFGPKFRGKATLTADTSSNTASLQLSSLTSEDTGVYYCVTSGYWGQGTTLSVSS
VL: B16 VL with A14T
notes: Mouse hybridoma antibody

Kd (human β-amyloid 1-40 [4]): 0.95 nM
koff (human β-amyloid 1-40 [4]): 7.11e-05 s⁻¹
kon (human β-amyloid 1-40 [4]): 74800 M⁻¹ s⁻¹
binding result [5]: binds
binding result (ovalbumin protein): no binding
binding result [6]: binds
B18: 14B3 mouse monoclonal antibody (antibody, V domains shown)
VH: B16 VH with V11L, K13E, A24G, I34V, K59L, V61T, L70F, H82Q, G92A, T98S
VL: B16 VL with A7S, A14T, S32R, S68T, R79K
notes: Mouse hybridoma antibody

Kd (human β-amyloid 1-40 [4]): 1.13 nM
koff (human β-amyloid 1-40 [4]): 8.27e-05 s⁻¹
kon (human β-amyloid 1-40 [4]): 73200 M⁻¹ s⁻¹
binding result [5]: binds
binding result (ovalbumin protein): no binding
binding result [6]: binds
B19: 4D4 mouse monoclonal antibody (antibody, V domains shown)
VH: EVQLQQSGAELVEPGASVKLSCTGSGFNIKVYYVHWLKQLTEQGLEWIGRIDPENGETLYTPKFQGKATLTVDTSSNTAYLQLNSLTSEDTAVYYCVSSGYWGQGTSLTVSS
VL: B16 VL with A7S, A14T, S32R, S68T, R79K
notes: Mouse hybridoma antibody

Kd (human β-amyloid 1-40 [4]): 7.62 nM
koff (human β-amyloid 1-40 [4]): 0.000618 s⁻¹
kon (human β-amyloid 1-40 [4]): 81200 M⁻¹ s⁻¹
binding result [5]: binds
binding result (ovalbumin protein): no binding
binding result [6]: binds
B21: 16D4 mouse monoclonal antibody (antibody, V domains shown)
VH: B16 VH with V11L, V31D, I34M, K59Q, V61A, T69S, V72A, G92A, T98S
VL: B16 VL with A14T
notes: Mouse hybridoma antibody

The remaining lines, values behind:

B1: straight graft light chain L0 in combination with H11 (antibody, V domains shown)
VH: B3 VH with H30K, E42G
VL: DIVMTQSPLSLPVTPGEPASISCRSSKSLLHRNGITYLYWYLQKPGQSPQLLIYQMSNLASGVPDRFSGSGSGTDFTLKISRVEAEDVGVYYCAQNLELWTFGQGTKVEIKR
notes: Kabat positions; after CDRL1 the count on the entry is Kabat + 5; also called H11L0
binding result (human β-amyloid 1-40 [1]): binds

B2: humanised de-immunised construct H48L19 (antibody, human IgG1, V domains shown)
VH: B3 VH
VL: B3 VL with I35K
Kd (human β-amyloid 1-40 [2]): 3.15 nM

B4: humanised de-immunised construct H50L19 (antibody, human IgG1, V domains shown)
VH: B3 VH with K23T
VL: B3 VL with I35K
Kd (human β-amyloid 1-40 [2]): 2.76 nM

B7: humanised de-immunised construct H49L19 (antibody, human IgG1, V domains shown)
VH: B3 VH with H30K, V31T
VL: B3 VL with I35K
Kd (human β-amyloid 1-40 [2]): 3.09 nM

B8: humanised VL variant L14 in combination with H11 (antibody, V domains shown)
VH: B3 VH with H30K, E42G
VL: B1 VL with S48P, Q104G
notes: Kabat positions; after CDRL1 the count on the entry is Kabat + 5; also called H11L14
binding result (human β-amyloid 1-40 [1]): binds

B9: humanised de-immunised construct H51L20 (antibody, human IgG1, V domains shown)
VH: B3 VH with V31T
VL: B3 VL
Kd (human β-amyloid 1-40 [2]): 2.23 nM
Kd (human β-amyloid 1-40 [3]): 3.89 nM

B11: humanised de-immunised construct H50L20 (antibody, human IgG1, V domains shown)
VH: B3 VH with K23T
VL: B3 VL
Kd (human β-amyloid 1-40 [2]): 2.5 nM
Kd (human β-amyloid 1-40 [3]): 3.5 nM

B12: humanised de-immunised construct H51L19 (antibody, human IgG1, V domains shown)
VH: B3 VH with V31T
VL: B3 VL with I35K
Kd (human β-amyloid 1-40 [2]): 2.65 nM

B14: humanised de-immunised construct H49L21 (antibody, human IgG1, V domains shown)
VH: B3 VH with H30K, V31T
VL: B3 VL with I35K, H58N
Kd (human β-amyloid 1-40 [2]): 2.58 nM

B15: 2C1 mouse monoclonal antibody (antibody, V domains shown)
VH: B19 VH with E13K, L59I, T61A, G66D, N84S, S107T
VL: B16 VL with A7S, A14T, S32R, S68T, R79K
notes: Mouse hybridoma antibody
Kd (human β-amyloid 1-40 [4]): 1.95 nM
koff (human β-amyloid 1-40 [4]): 0.000129 s⁻¹
kon (human β-amyloid 1-40 [4]): 66300 M⁻¹ s⁻¹
binding result [5]: binds
binding result (ovalbumin protein): no binding
binding result [6]: binds

B20: 5D1 mouse monoclonal antibody (antibody, V domains shown)
VH: B19 VH with E13K, L59K, T61A, G66D, Q82H, N84S, S107T
VL: B16 VL with A7S, A14T, S32R, S68T, R79K
notes: Mouse hybridoma antibody
Kd (human β-amyloid 1-40 [4]): 2.57 nM
koff (human β-amyloid 1-40 [4]): 0.000147 s⁻¹
kon (human β-amyloid 1-40 [4]): 57000 M⁻¹ s⁻¹
Kd (human β-amyloid 1-40 [7]): 2.05 nM
koff (human β-amyloid 1-40 [7]): 0.000135 s⁻¹
kon (human β-amyloid 1-40 [7]): 65800 M⁻¹ s⁻¹
binding result [5]: binds
binding result (ovalbumin protein): no binding
binding result [6]: binds

From patent publication US20090162358A1 (GlaxoSmithKline, published 2009)
